Assay results taken from paper PMC8415103 (Biochemistry, 2021).

How the values were obtained:
[1] = target: NikS (Streptomyces tendae, UniProt Q9F2E5); experiment: steady-state amide ligation kinetics, substrate inhibition model; type: biochemical; conditions: HPHT as co-substrate
[2] = substrate: N[C@H](C(=O)O)[C@H]1O[C@@H](n2cc(C(=O)O)c(=O)[nH]c2=O)[C@H](O)[C@@H]1O; experiment: steady-state amide ligation kinetics, Michaelis-Menten fit; type: biochemical, Streptomyces asoensis; conditions: 200 μM CPOAA, 1 mM ATP, 3 mM MgCl2
[3] = substrate: N[C@H](C(=O)O)[C@H]1O[C@@H](n2ccc(=O)[nH]c2=O)[C@H](O)[C@@H]1O; experiment: as above; type: biochemical, Streptomyces asoensis; conditions: 200 μM CPOAA, 1 mM ATP, 3 mM MgCl2
[4] = substrate: N[C@H](C(=O)O)[C@H]1O[C@@H](n2ccc(=O)[nH]c2=O)[C@H](OP(=O)(O)O)[C@@H]1O; experiment: as above; type: biochemical, Streptomyces asoensis; conditions: 200 μM CPOAA, 1 mM ATP, 3 mM MgCl2
[5] = substrate: N[C@H](C(=O)O)[C@H]1O[C@@H](n2ccc(=O)[nH]c2=O)[C@H](OP(=O)(O)O)[C@@H]1O; experiment: steady-state amide ligation kinetics, substrate inhibition model; type: biochemical, Streptomyces tendae; conditions: HPHT as co-substrate

For `N[C@H](C(=O)O)[C@H]1O[C@@H](n2ccc(=O)[nH]c2=O)[C@H](OP(=O)(O)O)[C@@H]1O` [compound 6, AHAP], the Ki [1] was 111 ± 38 µM.

B1: PolG (Streptomyces asoensis) (protein)
chain: MFLLLNNKPILHRVPEWFPQARQELIVVSTRSGLGTSAFPELARGFRHLHLVSSLDRPGLEEDLVALCRRFGVRRVLSTGEREVLPAATLRERLGLPGQDVACATAYRDKYTMKSLLTEAGIPVAPMRRLASPADLDAFADEAGFPLVVKSRLSGGSNGTRVLWDGDALTAFTDDWAAGRTAAPDLAEAWVEGDFYHINGLMRDGRILLAQPSYQPYSDWFSVAYDAPGMSGMMPDEDPMSARLRDTAAKVVATMPAVPGVCAFQVEFFHTPDDRLVVCETACRAGGSRMVETHEDTLGVHLHGASLLGQAGRSDQVTIRPTGRRQGYARFPSAHGVLRHLPRRSPLPQTLLYTATGEEGRHYDPATSLGSSVAEIVVSLTGPDTAAELLAVETWWESAVVWQDRRNPVPDRFKSVHRVRPDTRERALHV
In the case of B1, the Km [2] is reported as 334 ± 68 µM, the kcat [2] is reported as 0.0233 ± 0.0067 s⁻¹ and the Km [3] is reported as 931 ± 122 µM. It also gave a kcat [3] of 0.0112 ± 0.00067 s⁻¹, a Km [4] of 9.1 ± 0.4 µM and a kcat [4] of 0.0583 ± 0.0033 s⁻¹.

B2: NikS (Streptomyces tendae) (protein)
chain: MKAEQGPFLLLNTKKIVSRLHEWFPDAARELVVVTTKADIPSADISAYARRFLHLEVVPNLWELSDDELLALARRFGVRRILSLGEREVLRAARIRAELGLPGQSLASATAYRDKHVMKSTLAAAGIDVAPMRKFRTNDDLAEFAWKVGFPVVVKELDSGASNGTVVLMDEEDLRALPERATAAPRLAEAWVEGDFYHVNGLMKDGEVVLAVPSRNLYSDWFSVAYDAPTMTGMMPDDHPLSERLRSTARQVVAALPAVPDLCAFHLELFHTADDRVVVCEIACRAGAALVSDVHEAVLGVNFHGASLLGQAGRGDQVEIRPTGERLGFVWFPPAKGVLRALPDTCPLPGTVSYRPCGDIGRRYGSSSGLGRPIAEMVFRLTEPDTGAELRRIEEWWDDNVVWEHRTNAVPDRWKTPRRKPADA
B2 gave a Km [5] of 10.9 ± 2.6 µM and a kcat [5] of 0.0283 ± 0.005 s⁻¹.
